Results from patent publication US20090010966A1.

What was measured:
[1] = molecular target: elongation factor 2 (EF2) (UniProt P55823)
[2] = molecular target: elongation factor 2 (EF2) (rabbit) (UniProt P55823); test: cell-based or functional assay

| Substance | Relative IVTT score (ratio (IC50 WT / IC50 mutant)) [1] | inhibition of transcription/translation of T7-luc plasmid (IVTT) [2] [%] |
| --- | --- | --- |
| DT382 V28S | 3.61 |  |
| control DT(ΔR), truncated DT comprising the C and I domains only (from UniProt P00588 33-414) (enzyme) |  | 90 |
